Experimental data taken from patent US20100260668A1 (published 2010).
Each block holds one binder with its values, some of them ahead of it.

What was measured:
VEGF = molecular target: T1, VEGF (UniProt P15692-4 27-191); experiment: SPR (Biacore), DVD-Ig captured, VEGF in solution
T1 construct: Bought reagent; also called vascular endothelial growth factor

DLL4 ECD His tag = molecular target: T2, DLL4 ECD His tag (UniProt Q9NR61 27-529, limits assumed); experiment: SPR (Biacore), DVD-Ig captured, DLL4 as analyte
T2 construct: extracellular domain; also called DLL ECD His tag

T1 sequence (P15692 other isoform, or with tags, fused parts or gaps limits assumed): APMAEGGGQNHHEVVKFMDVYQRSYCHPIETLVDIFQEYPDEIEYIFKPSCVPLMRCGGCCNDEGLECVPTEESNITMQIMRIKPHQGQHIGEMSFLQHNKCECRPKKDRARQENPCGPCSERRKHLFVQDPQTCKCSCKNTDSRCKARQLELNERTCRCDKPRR

B1: DVD480 (bispecific antibody, human IgG1, kappa)
heavy: not shown
light: DIQMTQSPSSLSASVGDRVTITCRASQVIRRSLAWYQQKPGKAPKLLIYAASNLASGVPSRFSGSGSGTDFTLTISSLQPEDFATYYCQQSNTSPLTFGQGTKVEIKRTVAAPDIQMTQSPSSLSASVGDRVTITCRASQDVSTAVAWYQQKPGKAPKLLIYSASFLYSGVPSRFSGSGSGTDFTLTISSLQPEDFATTYYCQQSYTGTVTFGQGTKVEIKRTVAAPSVFIFPPSDEQLKSGTASVVCLLNNFYPREAKVQWKVDNALQSGNSQESVTEQDSKDSTYSLSSTLTLSKADYEKHKVYACEVTHQGLSSPVTKSFNRGEC
notes: DVD-Ig; N-term; VD AB071 (VEGF), C-term; VD AB015 (DLL4); HC linker long, LC linker short; also called DVD480H; DVD480L
- Kd (VEGF): 0.302 nM
- koff (VEGF): 4.91e-05 s⁻¹
- kon (VEGF): 162000 M⁻¹ s⁻¹

B5: DVD446 (bispecific antibody, human IgG1, kappa)
heavy: not shown
light: DIQMTQSPSSLSASVGDRVTITCRASQVIRRSLAWYQQKPGKAPKLLIYAASNLASGVPSRFSGSGSGTDFTLTISSLQPEDFATYYCQQSNTSPLTFGQGTKVEIKRTVAAPDIVMTQSPDSLAVSLGERATISCRASESVDNYGISFMKWFQQKPGQPPKLLIYAASNQGSGVPDRFSGSGSGTDFTLTISSLQAEDVAVYYCQQSKEVPWTFGGGTKVEIKRTVAAPSVFIFPPSDEQLKSGTASVVCLLNNFYPREAKVQWKVDNALQSGNSQESVTEQDSKDSTYSLSSTLTLSKADYEKHKVYACEVTHQGLSSPVTKSFNRGEC
notes: DVD-Ig; N-term; VD AB071 (VEGF), C-term; VD AB069 (DLL4); HC linker short, LC linker short; also called DVD446H; DVD446L
- Kd (VEGF): 0.000297 nM
- koff (VEGF): 3.62e-08 s⁻¹
- kon (VEGF): 122000 M⁻¹ s⁻¹

B6: DVD458 (bispecific antibody, human IgG1, kappa, L234A L235A)
heavy: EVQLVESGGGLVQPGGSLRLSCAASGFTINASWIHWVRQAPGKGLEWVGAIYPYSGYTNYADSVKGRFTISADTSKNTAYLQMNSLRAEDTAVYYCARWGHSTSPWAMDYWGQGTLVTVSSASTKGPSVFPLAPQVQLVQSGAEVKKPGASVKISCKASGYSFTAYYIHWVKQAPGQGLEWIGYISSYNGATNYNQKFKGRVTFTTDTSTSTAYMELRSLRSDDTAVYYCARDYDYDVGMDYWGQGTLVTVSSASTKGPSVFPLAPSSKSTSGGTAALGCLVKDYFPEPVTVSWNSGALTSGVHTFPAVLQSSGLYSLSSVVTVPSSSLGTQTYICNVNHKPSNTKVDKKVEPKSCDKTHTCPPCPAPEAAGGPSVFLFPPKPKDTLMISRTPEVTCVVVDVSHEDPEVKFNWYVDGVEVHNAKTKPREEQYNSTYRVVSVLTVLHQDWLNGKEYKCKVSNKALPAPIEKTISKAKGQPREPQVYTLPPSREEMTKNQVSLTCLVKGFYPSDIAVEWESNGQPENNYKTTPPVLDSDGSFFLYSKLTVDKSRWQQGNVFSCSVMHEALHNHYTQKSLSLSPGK
light: B5 light
notes: DVD-Ig; N-term; VD AB071 (VEGF), C-term; VD AB069 (DLL4); HC linker long, LC linker short; also called DVD458H; DVD458L
- Kd (VEGF): 0.000281 nM
- koff (VEGF): 3.39e-08 s⁻¹
- kon (VEGF): 121000 M⁻¹ s⁻¹

B9: DVD452 (bispecific antibody, human IgG1, kappa, L234A L235A)
heavy: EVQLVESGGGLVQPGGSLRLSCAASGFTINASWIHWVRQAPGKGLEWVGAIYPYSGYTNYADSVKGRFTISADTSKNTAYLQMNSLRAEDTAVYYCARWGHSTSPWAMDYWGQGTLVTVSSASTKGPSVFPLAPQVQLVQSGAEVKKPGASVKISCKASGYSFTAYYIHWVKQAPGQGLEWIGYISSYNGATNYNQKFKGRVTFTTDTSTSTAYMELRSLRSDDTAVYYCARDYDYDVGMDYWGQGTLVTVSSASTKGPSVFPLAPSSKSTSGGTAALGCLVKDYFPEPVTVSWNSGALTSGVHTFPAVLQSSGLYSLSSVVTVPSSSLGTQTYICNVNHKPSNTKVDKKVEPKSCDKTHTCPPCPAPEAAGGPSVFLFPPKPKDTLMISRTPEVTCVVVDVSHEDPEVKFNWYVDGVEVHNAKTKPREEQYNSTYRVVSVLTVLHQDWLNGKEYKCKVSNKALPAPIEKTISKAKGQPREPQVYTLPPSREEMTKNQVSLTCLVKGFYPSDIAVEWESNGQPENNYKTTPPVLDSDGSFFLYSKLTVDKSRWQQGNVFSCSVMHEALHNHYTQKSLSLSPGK
light: DIQMTQSPSSLSASVGDRVTITCRASQVIRRSLAWYQQKPGKAPKLLIYAASNLASGVPSRFSGSGSGTDFTLTISSLQPEDFATYYCQQSNTSPLTFGQGTKVEIKRTVAAPSVFIFPPDIVMTQSPDSLAVSLGERATISCRASESVDNYGISFMKWFQQKPGQPPKLLIYAASNQGSGVPDRFSGSGSGTDFTLTISSLQAEDVAVYYCQQSKEVPWTFGGGTKVEIKRTVAAPSVFIFPPSDEQLKSGTASVVCLLNNFYPREAKVQWKVDNALQSGNSQESVTEQDSKDSTYSLSSTLTLSKADYEKHKVYACEVTHQGLSSPVTKSFNRGEC
notes: DVD-Ig; N-term; VD AB071 (VEGF), C-term; VD AB069 (DLL4); HC linker long, LC linker long; also called DVD452H; DVD452L
- Kd (VEGF): 0.000155 nM
- koff (VEGF): 1.61e-08 s⁻¹
- kon (VEGF): 104000 M⁻¹ s⁻¹

B10: DVD464 (bispecific antibody, human IgG1, kappa)
heavy: not shown
light: B9 light
notes: DVD-Ig; N-term; VD AB071 (VEGF), C-term; VD AB069 (DLL4); HC linker short, LC linker long; also called DVD464H; DVD464L
- Kd (VEGF): 0.00077 nM
- koff (VEGF): 7.22e-08 s⁻¹
- kon (VEGF): 93700 M⁻¹ s⁻¹

B12: DVD490 (bispecific antibody, human IgG1, kappa)
heavy: not shown
light: DIQMTQSPSSLSASVGDRVTITCRASQDVSTAVAWYQQKPGKAPKLLIYSASFLYSGVPSRFSGSGSGTDFTLTISSLQPEDFATYYCQQSYTTPPTFGQGTKVEIKRTVAAPDIQMTQSSSYLSVSLGGRVTITCKASDHINNWLAWYQQKPGNAPRLLISGATSLETGVPSRFSGSGSGKDYTLSITSLQTEDVATYYCQQYWSIPLTFGAGTKLELKRTVAAPSVFIFPPSDEQLKSGTASVVCLLNNFYPREAKVQWKVDNALQSGNSQESVTEQDSKDSTYSLSSTLTLSKADYEKHKVYACEVTHQGLSSPVTKSFNRGEC
notes: HC linker short, LC linker short; also called DVD-Ig DVD490
- Kd (DLL4 ECD His tag): 0.528 nM
- koff (DLL4 ECD His tag): 7.7e-05 s⁻¹
- kon (DLL4 ECD His tag): 146000 M⁻¹ s⁻¹

B14: DVD474 (bispecific antibody, human IgG1, kappa)
heavy: not shown
light: DIQMTQSPSSLSASVGDRVTITCRASQVIRRSLAWYQQKPGKAPKLLIYAASNLASGVPSRFSGSGSGTDFTLTISSLQPEDFATYYCQQSNTSPLTFGQGTKVEIKRTVAAPSVFIFPPDIQMTQSPSSLSASVGDRVTITCRASQDVSTAVAWYQQKPGKAPKLLIYSASFLYSGVPSRFSGSGSGTDFTLTISSLQPEDFATTYYCQQSYTGTVTFGQGTKVEIKRTVAAPSVFIFPPSDEQLKSGTASVVCLLNNFYPREAKVQWKVDNALQSGNSQESVTEQDSKDSTYSLSSTLTLSKADYEKHKVYACEVTHQGLSSPVTKSFNRGEC
notes: DVD-Ig; N-term; VD AB071 (VEGF), C-term; VD AB015 (DLL4); HC linker long, LC linker long; also called DVD474H; DVD474L
- Kd (VEGF): 0.00144 nM

B15: DVD486 (bispecific antibody, human IgG1, kappa)
heavy: not shown
light: B14 light
notes: DVD-Ig; N-term; VD AB071 (VEGF), C-term; VD AB015 (DLL4); HC linker short, LC linker long; also called DVD486H; DVD486L
- Kd (VEGF): 0.371 nM

More lines, now with the values ahead:

- Kd (DLL4 ECD His tag): 5.55 nM
- koff (DLL4 ECD His tag): 0.000629 s⁻¹
- kon (DLL4 ECD His tag): 113000 M⁻¹ s⁻¹
B2: DVD526 (bispecific antibody, human IgG1, lambda)
heavy: not shown
light: DIQMTQSPSSLSASVGDRVTITCRASQDVSTAVAWYQQKPGKAPKLLIYSASFLYSGVPSRFSGSGSGTDFTLTISSLQPEDFATYYCQQSYTTPPTFGQGTKVEIKRTVAAPQAVVTQESALTTSPGETVTLTCRSSTGAVTTSNYANWVQEKPDHLFTGLIGGTNNRAPGVPARFSGSLIGDKAALTITGAQTEDEAIYFCALWYSNHWVFGGGTKLTVLGQPKAAPSVTLFPPSSEELQANKATLVCLISDFYPGAVTVAWKADSSPVKAGVETTTPSKQSNNKYAASSYLSLTPEQWKSHRSYSCQVTHEGSTVEKTVAPTECS
notes: HC linker long, LC linker short; also called DVD-Ig DVD526

- Kd (DLL4 ECD His tag): 1.44 nM
- koff (DLL4 ECD His tag): 0.000172 s⁻¹
- kon (DLL4 ECD His tag): 120000 M⁻¹ s⁻¹
B3: DVD496 (bispecific antibody, human IgG1, kappa)
heavy: not shown
light: DIQMTQSPSSLSASVGDRVTITCRASQDVSTAVAWYQQKPGKAPKLLIYSASFLYSGVPSRFSGSGSGTDFTLTISSLQPEDFATYYCQQSYTTPPTFGQGTKVEIKRTVAAPSVFIFPPDIQMTQSSSYLSVSLGGRVTITCKASDHINNWLAWYQQKPGNAPRLLISGATSLETGVPSRFSGSGSGKDYTLSITSLQTEDVATYYCQQYWSIPLTFGAGTKLELKRTVAAPSVFIFPPSDEQLKSGTASVVCLLNNFYPREAKVQWKVDNALQSGNSQESVTEQDSKDSTYSLSSTLTLSKADYEKHKVYACEVTHQGLSSPVTKSFNRGEC
notes: HC linker long, LC linker long; also called DVD-Ig DVD496

- Kd (DLL4 ECD His tag): 1.7 nM
- koff (DLL4 ECD His tag): 0.000167 s⁻¹
- kon (DLL4 ECD His tag): 98400 M⁻¹ s⁻¹
B4: DVD508 (bispecific antibody, human IgG1, kappa)
heavy: not shown
light: B3 light
notes: HC linker short, LC linker long; also called DVD-Ig DVD508

- Kd (VEGF): 0.781 nM
- koff (VEGF): 0.00028 s⁻¹
- kon (VEGF): 358000 M⁻¹ s⁻¹
B7: DVD516 (bispecific antibody, human IgG1, lambda)
heavy: not shown
light: DIQMTQSPSSLSASVGDRVTITCRASQVIRRSLAWYQQKPGKAPKLLIYAASNLASGVPSRFSGSGSGTDFTLTISSLQPEDFATYYCQQSNTSPLTFGQGTKVEIKRTVAAPQAVVTQESALTTSPGETVTLTCRSSTGAVTTSNYANWVQEKPDHLFTGLIGGTNNRAPGVPARFSGSLIGDKAALTITGAQTEDEAIYFCALWYSNHWVFGGGTKLTVLGQPKAAPSVTLFPPSSEELQANKATLVCLISDFYPGAVTVAWKADSSPVKAGVETTTPSKQSNNKYAASSYLSLTPEQWKSHRSYSCQVTHEGSTVEKTVAPTECS
notes: DVD-Ig; N-term; VD AB071 (VEGF), C-term; VD AB073 (DLL4); HC linker short, LC linker short; also called DVD516H; DVD516L

- Kd (VEGF): 0.45 nM
- koff (VEGF): 0.00022 s⁻¹
- kon (VEGF): 489000 M⁻¹ s⁻¹
B8: DVD522 (bispecific antibody, human IgG1, kappa, lambda, L234A L235A)
heavy: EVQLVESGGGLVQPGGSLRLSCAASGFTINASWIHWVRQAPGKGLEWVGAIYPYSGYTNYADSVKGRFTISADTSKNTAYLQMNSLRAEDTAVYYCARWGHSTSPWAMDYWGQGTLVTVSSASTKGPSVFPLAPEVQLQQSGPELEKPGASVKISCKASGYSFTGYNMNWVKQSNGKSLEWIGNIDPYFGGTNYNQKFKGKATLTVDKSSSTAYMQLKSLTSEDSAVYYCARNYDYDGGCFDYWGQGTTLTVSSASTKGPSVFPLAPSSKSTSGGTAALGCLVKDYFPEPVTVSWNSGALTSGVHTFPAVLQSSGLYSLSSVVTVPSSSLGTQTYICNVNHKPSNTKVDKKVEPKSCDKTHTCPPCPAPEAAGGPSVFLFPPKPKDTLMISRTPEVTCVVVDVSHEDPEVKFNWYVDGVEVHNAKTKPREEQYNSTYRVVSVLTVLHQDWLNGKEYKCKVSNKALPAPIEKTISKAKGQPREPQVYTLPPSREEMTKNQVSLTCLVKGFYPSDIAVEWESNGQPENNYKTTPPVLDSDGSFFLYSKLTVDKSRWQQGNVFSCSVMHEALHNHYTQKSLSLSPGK
light: DIQMTQSPSSLSASVGDRVTITCRASQVIRRSLAWYQQKPGKAPKLLIYAASNLASGVPSRFSGSGSGTDFTLTISSLQPEDFATYYCQQSNTSPLTFGQGTKVEIKRTVAAPSVFIFPPQAVVTQESALTTSPGETVTLTCRSSTGAVTTSNYANWVQEKPDHLFTGLIGGTNNRAPGVPARFSGSLIGDKAALTITGAQTEDEAIYFCALWYSNHWVFGGGTKLTVLGQPKAAPSVTLFPPSSEELQANKATLVCLISDFYPGAVTVAWKADSSPVKAGVETTTPSKQSNNKYAASSYLSLTPEQWKSHRSYSCQVTHEGSTVEKTVAPTECS
notes: DVD-Ig; N-term; VD AB071 (VEGF), C-term; VD AB073 (DLL4); HC linker long, LC linker long; also called DVD522H; DVD522L

- Kd (DLL4 ECD His tag): 6.85 nM
- koff (DLL4 ECD His tag): 0.00081 s⁻¹
- kon (DLL4 ECD His tag): 118000 M⁻¹ s⁻¹
B11: DVD532 (bispecific antibody, human IgG1, kappa, lambda)
heavy: not shown
light: DIQMTQSPSSLSASVGDRVTITCRASQDVSTAVAWYQQKPGKAPKLLIYSASFLYSGVPSRFSGSGSGTDFTLTISSLQPEDFATYYCQQSYTTPPTFGQGTKVEIKRTVAAPSVFIFPPQAVVTQESALTTSPGETVTLTCRSSTGAVTTSNYANWVQEKPDHLFTGLIGGTNNRAPGVPARFSGSLIGDKAALTITGAQTEDEAIYFCALWYSNHWVFGGGTKLTVLGQPKAAPSVTLFPPSSEELQANKATLVCLISDFYPGAVTVAWKADSSPVKAGVETTTPSKQSNNKYAASSYLSLTPEQWKSHRSYSCQVTHEGSTVEKTVAPTECS
notes: HC linker short, LC linker long; also called DVD-Ig DVD532

- Kd (DLL4 ECD His tag): 0.807 nM
- koff (DLL4 ECD His tag): 7.43e-05 s⁻¹
- kon (DLL4 ECD His tag): 92100 M⁻¹ s⁻¹
B13: DVD502 (bispecific antibody, human IgG1, kappa)
heavy: not shown
light: B12 light
notes: HC linker long, LC linker short; also called DVD-Ig DVD502
